Here are results for three proteins from PMC11919738, “Mechanism for Vipp1 spiral formation, ring biogenesis, and membrane repair” (Nature Structural & Molecular Biology, 2024).

The data set concerns the molecule itself. The data set is described as follows: cryo-EM structure; helical filaments of purified protein, 60 µM, low-salt SEC buffer, helical reconstruction.

B1: Vipp1Δα6_(1–219) (Vipp1 with the C-terminal domain truncated) (domain or fragment, Nostoc punctiforme, UniProt B2J6D9 1-219, looked up)
chain: MGLFDRIKRVVSSNLNDLVNKAEDPEKMLEQAILEMQEDLVQLRQGVAQAIAAQKRSEKQYNDAQNEINKWQRNAQLALQKGDENLARQALERKKTYTDTSAALKASLDTQSTQVETLKRNLIQLESKISEAKTKKEMLKARITTAKAQEQLQGMVRGMNTSSAMSAFERMEEKVLMQESRAQALGELAGADLETQFAQLEGGSDVDDELAALKAQMLP
notes: model built for amino acids 1-217; also called Vipp1_(Δα6_L2); Vipp1_(Δα6_L3); source: E. coli C43 (DE3) with pspA gene knockout, purified (amylose resin, TEV, Ni-NTA, SEC); not shown: His6, N-terminal, cleaved; MBP, N-terminal, cleaved
On to B1, for which the binding result is “binds”.

B2: Vipp1 (vesicle-inducing protein in plastids 1) from Nostoc punctiforme (natural protein, UniProt B2J6D9 1-258, looked up)
chain: MGLFDRIKRVVSSNLNDLVNKAEDPEKMLEQAILEMQEDLVQLRQGVAQAIAAQKRSEKQYNDAQNEINKWQRNAQLALQKGDENLARQALERKKTYTDTSAALKASLDTQSTQVETLKRNLIQLESKISEAKTKKEMLKARITTAKAQEQLQGMVRGMNTSSAMSAFERMEEKVLMQESRAQALGELAGADLETQFAQLEGGSDVDDELAALKAQMLPPATPVTQAQLPPQQETTPAKSNEVVDAELDSLRKQLDQL
notes: Vipp1, Nostoc punctiforme, UniProt B2J6D9; model built for amino acids 1-214 in Vipp1L1; Forms polymers (helical filaments, rings, sheets, spirals); the number of subunits is not fixed; RingsHS are the same protein purified with 50 mM NaCl in the SEC buffer; also called IM30; native Vipp1; source: E. coli C43 (DE3) with pspA gene knockout, purified (amylose resin, TEV, Ni-NTA, SEC); not shown: …
Regarding B2, the binding result was “binds”.

B3: Vipp1-F197K/L200K (Vipp1 interface 3 mutant) (natural protein, Nostoc punctiforme, UniProt B2J6D9 1-258, looked up)
chain: MGLFDRIKRVVSSNLNDLVNKAEDPEKMLEQAILEMQEDLVQLRQGVAQAIAAQKRSEKQYNDAQNEINKWQRNAQLALQKGDENLARQALERKKTYTDTSAALKASLDTQSTQVETLKRNLIQLESKISEAKTKKEMLKARITTAKAQEQLQGMVRGMNTSSAMSAFERMEEKVLMQESRAQALGELAGADLETQKAQKEGGSDVDDELAALKAQMLPPATPVTQAQLPPQQETTPAKSNEVVDAELDSLRKQLDQL
notes: Vipp1, Nostoc punctiforme, UniProt B2J6D9, with F197K and L200K; Co-purified with E. coli membrane (lipid bilayer in the filament lumen); source: E. coli C43 (DE3) with pspA gene knockout, purified (amylose resin, TEV, Ni-NTA, SEC); not shown: His6, N-terminal, cleaved; MBP, N-terminal, cleaved
With B3, the binding result is “binds”.
